This series can be described thus: amyloid nucleation score (Sup35N fusion, yeast selection) (log enrichment); library NNK1; higher = more nucleation; inactive = no reads after selection. In outline: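 Peptides of 20 random codons, each fused to Sup35N, were expressed in psi-negative yeast. Cells were induced with 100 μM copper sulfate for 24 hours and grown 7 days at 30°C on medium lacking adenine and uracil, and plasmid inserts before and after selection were Illumina-sequenced. Nucleation scores are DiMSum log enrichments of output over input reads, centred on the mode score of non-aggregating sequences, and sequences under 100 input reads were excluded.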

± gives the uncertainty stated by the source.

This is an account of results in the supplement of paper PMC12042874.

Substance IYMYIVNRRVTGSFRF yielded an amyloid nucleation score of -0.136 ± 0.23.

GVPYR: the amyloid nucleation score is 0.044 ± 0.68.

Substance VGNRSFNIFGTMCKMLQWTE displayed an amyloid nucleation score of -0.715 ± 1.1.

With HPIEWSKVSDNIRRQSGCCG, the amyloid nucleation score amounted to 0.754 ± 0.33.

YYSVGYGTYLTEFLCGNLRG yielded an amyloid nucleation score of 0.989 ± 0.35.

Consider MLFNTHHVYLSTM, for which the amyloid nucleation score turned out to be 0.987 ± 0.53.

As to GKWPRRSW, the amyloid nucleation score came out at 0.376 ± 1.1.

IYLCLATYFLYPRLVWTSTL: the amyloid nucleation score was 0.521 ± 0.72.

In turn, YMNWFITGHDVGRYLIQFFV showed an amyloid nucleation score of -1.74 ± 2.4.

For the substance FELQEYCFD, the amyloid nucleation score was found to be 0.923 ± 0.5.

With QCTVGASMD, the amyloid nucleation score was found to be 0.169 ± 0.34.

In turn, ISTSC had an amyloid nucleation score of 0.778 ± 0.49.

Take LAWIGFRYRDGMKYGVHWGR: the amyloid nucleation score was -0.522 ± 1.2.

The substance ELVSVGLSAIHSSDYNFSFN registered an amyloid nucleation score of 0.45 ± 0.7.

For ASVILIVPINLYLYVVYVWI, the amyloid nucleation score turned out to be 3.2 ± 0.15.

Turning to FYAVVFYYDTDSAARCRFC, the amyloid nucleation score amounted to 6.32 ± 0.075.

On to LGNMHREDYGSSGSRARFKG, for which the amyloid nucleation score is -0.612 ± 0.74.

Consider CRMRMLRKYVFLD, for which the amyloid nucleation score is -0.427 ± 0.61.

CVWVKGHSRCLTTSLVRRSR had an amyloid nucleation score of -0.022 ± 0.42.

Substance GGLQKMVPNSNLCFLEDP gave an amyloid nucleation score of -0.713 ± 1.7.

The substance HPMKCFQANQFINIYRNDVA yielded an amyloid nucleation score of 7.136 ± 0.059.

Turning to GKQGRIQDSVYDWCCCNLSG, the amyloid nucleation score was 0.255 ± 1.2.

In turn, LSHSEDVSQETTIYPNLSCN returned an amyloid nucleation score of -0.533 ± 0.68.

The substance LYIAH yielded an amyloid nucleation score of -0.722 ± 0.42.

Regarding RVPAFRY, the amyloid nucleation score result is “inactive”.

As to FYLHRAIWPSYHVSRLVRHR, the amyloid nucleation score was -0.979 ± 2.7.

With VSLVMWVYCGDDWLSFAIRA, the amyloid nucleation score is -0.211 ± 0.38.

With LFKNFEWMYSTMTHLSWIWL, the amyloid nucleation score is -0.335 ± 0.21.

With MHWLDYSFELLDGQ, the amyloid nucleation score was found to be 1.01 ± 0.75.

For the substance SSYGKFDGKCLQHM, the amyloid nucleation score was -0.157 ± 0.76.

In the case of VCIFCFRGGMVKRPTLDMVY, the amyloid nucleation score worked out at 0.564 ± 0.19.

ECDRCYSYGCVDHKAALG had an amyloid nucleation score of 0.629 ± 0.72.

As for FFGVTYREYTWS, the amyloid nucleation score entry is “inactive”.

As for SSMSPTVYVVRR, the amyloid nucleation score worked out at 0.163 ± 0.9.

As for GSDGVCFNKNLNSWIYMLST, the amyloid nucleation score amounted to 0.805 ± 0.64.

For AAVLGFCSWNLRRRIMEF, the amyloid nucleation score was -0.864 ± 1.4.

LFWLKKNILLDRIHLP came in with an amyloid nucleation score of -0.172 ± 0.4.

With LIYRVPIDLITNSNSALRCA, the amyloid nucleation score is -0.018 ± 0.48.

As to LCFGYKLIAKECVCAGRTES, the amyloid nucleation score result is “inactive”.

RGNLAGLVLMNRHGCV returned an amyloid nucleation score of 0.078 ± 0.4.

As to FFRGFSWRVCSSFSSLVELW, the amyloid nucleation score entry is “inactive”.

Substance WQHSPTYGYLYIHC came in with an amyloid nucleation score of 0.633 ± 0.18.

Consider VVDEKREVRSLANVNTASSL, for which the amyloid nucleation score was determined as 0.1 ± 0.28.

In the case of DVLLFL, the amyloid nucleation score is -0.779 ± 1.3.

The substance KVYIIFVRGEDAFKLRGAAN showed an amyloid nucleation score of -0.529 ± 1.5.

On to MHRYF, for which the amyloid nucleation score is -0.286 ± 0.37.

Consider ISSLTV, for which the amyloid nucleation score is -1.33 ± 0.68.

The substance SVFSTEVCSTHAMILWKY gave an amyloid nucleation score of 0.117 ± 1.4.

LRYDVPRWLGFSEWHF: the amyloid nucleation score is -0.833 ± 1.

For HMLWNNVRIF, the amyloid nucleation score worked out at 0.09 ± 0.6.

As to NFPLVSFFTNCSNKE, the amyloid nucleation score result is “inactive”.

As for CILLYMQKSIGFGNSVKFAF, the amyloid nucleation score entry is “inactive”.

As to CFDNIGGCFNPHDY, the amyloid nucleation score is -0.184 ± 0.43.

The substance VFPDASSMRVRGGIDTAQEL displayed an amyloid nucleation score of 0.037 ± 0.46.

Substance FAELRFFCCDS showed an amyloid nucleation score of 2.45 ± 0.21.

Consider WYVMRLKLVCI, for which the amyloid nucleation score was determined as 0.156 ± 0.87.

On to IISISINGSVRWSCTRSGAD, for which the amyloid nucleation score came out at 0.499 ± 0.53.

NHMSGIDKGIMRLGEWLGEW registered an amyloid nucleation score of -1 ± 0.83.

WYYITS gave an amyloid nucleation score of 0.295 ± 0.67.

Turning to YLVSYMWVSLDDLSLYRANG, the amyloid nucleation score came to 0.585 ± 0.52.

YPTPLQVFVRSRFDRRI came in with an amyloid nucleation score of -0.132 ± 0.26.

In the case of DRFVVVLCFTDQ, the amyloid nucleation score came to 0.452 ± 0.46.

As to IGALTSHAHQNVCVCNLLKD, the amyloid nucleation score turned out to be 0.307 ± 0.81.

RLNKWWRTKDSYTGL returned an amyloid nucleation score of 0.258 ± 0.41.

Substance GYMCLSL showed an amyloid nucleation score of 0.395 ± 0.29.

With MNQLTFRTNRPPSTASVFAR, the amyloid nucleation score was 1.01 ± 0.61.

Take RESVINIR: the amyloid nucleation score is 1.28 ± 0.46.

Consider DINFNDGICGIKLYCYCISN, for which the amyloid nucleation score is -0.713 ± 1.7.

MSHFCLSLGAAASMNPLQLG gave an amyloid nucleation score of -0.309 ± 1.1.

With FLALR, the amyloid nucleation score was -0.249 ± 0.61.

In turn, FLTTEYDDWVSSAFINCCGD gave an amyloid nucleation score of -0.475 ± 0.41.

Substance MKFGGLSG gave an amyloid nucleation score of -0.171 ± 0.47.

In the case of RIANQ, the amyloid nucleation score is -0.086 ± 0.51.

As to NCGNMAATSFVNEIYL, the amyloid nucleation score entry was “inactive”.

In the case of DLYGACEMWCAENSYGRFSV, the amyloid nucleation score is 0.107 ± 0.95.

For the substance VALID, the amyloid nucleation score is -0.215 ± 1.7.

For the substance VIQRYRSVPI, the amyloid nucleation score was determined as 0.604 ± 0.67.

On to LSIEQTLQEAGILDYPSRIT, for which the amyloid nucleation score is -0.155 ± 0.35.

Take MHITDGCGG: the amyloid nucleation score is -0.456 ± 0.3.

Substance GLGLHWSEASFRLRMDRRFA registered an amyloid nucleation score of 3.79 ± 0.069.

Substance SSRLLCYRSVGAFISVGNEV had an amyloid nucleation score of 0.675 ± 0.19.

Take WNASMQSTGWFDILIYMCPV: the amyloid nucleation score turned out to be 3.19 ± 0.11.

For the substance GFTGARVSTQHRLRGN, the amyloid nucleation score was -0.245 ± 0.84.

Take RWSRI: the amyloid nucleation score is -0.253 ± 0.23.

For the substance DIRWGVSFIKGNFHTEL, the amyloid nucleation score entry is “inactive”.

As for IWKKLITNWMAYLTLNNFAL, the amyloid nucleation score result was “inactive”.

Consider VLKVCTWIKYLQSV, for which the amyloid nucleation score was -0.279 ± 0.33.

With ILYMLPILRKLVSFEFNYIC, the amyloid nucleation score came out at 0.117 ± 0.21.

Turning to RTGYPGSEVMGTRSFLSRNS, the amyloid nucleation score is -0.385 ± 1.9.

YYRGCTWLAYPEERTALPRM displayed an amyloid nucleation score of 0.208 ± 0.27.

Regarding QYVMSLITVQQYRSEFSAVM, the amyloid nucleation score is 0.263 ± 0.25.

GNSFISV: the amyloid nucleation score was -0.088 ± 0.81.

Turning to DRRSIAGFHCCWNSKVMVSP, the amyloid nucleation score is -0.83 ± 0.88.

For the substance RILGYRIMTNWGVGSYKPGR, the amyloid nucleation score is -0.41 ± 0.46.

The substance SQCLMKGHCKT yielded an amyloid nucleation score of 0.286 ± 0.66.

Regarding CCFRRVTSRVPGRTMEGNCF, the amyloid nucleation score is -0.264 ± 1.2.

In the case of LYLHSWAYVHKNTLNYL, the amyloid nucleation score is -0.14 ± 0.5.

Take FGVRQVYINGNFLRCLGTKS: the amyloid nucleation score came out at 0.751 ± 0.93.

Consider EICYRMICCYSN, for which the amyloid nucleation score is 0.085 ± 0.66.

Substance FQVCLVLSAHVRPQRYFKSW returned an amyloid nucleation score of -0.429 ± 0.8.

Take FYLVATCVAFFRLHWFACN: the amyloid nucleation score was -0.218 ± 0.36.

Consider DDLACRSQ, for which the amyloid nucleation score was determined as 0.614 ± 0.27.

Take RLVLSGWNVTVNSILYQGFI: the amyloid nucleation score stood at 6.078 ± 0.06.

For TTEHAK, the amyloid nucleation score is -0.263 ± 0.2.

MKAVELSPLKYTCLAN had an amyloid nucleation score of 0.313 ± 0.74.

VSWECSIVNAYMQPATCDII came in with an amyloid nucleation score of 4.88 ± 0.1.

Consider TTTKLGPMLLGRNSVYCV, for which the amyloid nucleation score turned out to be 2.31 ± 0.25.

In turn, VRFSVLKVTVLTKARNEVST yielded an amyloid nucleation score of 1.7 ± 0.24.

For KLFESYVLSRGMVPETVKAV, the amyloid nucleation score amounted to 0.226 ± 0.78.

For SQWALKITFYKMVAL, the amyloid nucleation score is -0.171 ± 1.1.

The substance ASFHNVQIGAYNMCKMNKGC returned an amyloid nucleation score of 1.75 ± 0.34.

KPMFSLGSNYKMCIYHGCFM registered an amyloid nucleation score of 8.183 ± 0.061.

Regarding GEIITWLSGIPLDTVCILRM, the amyloid nucleation score was -0.229 ± 0.25.

YVYNMFRL registered an amyloid nucleation score of 2.88 ± 0.14.

Substance LGVRINGTNVLDFF gave an amyloid nucleation score of 0.044 ± 0.27.

The substance TYWFMSRC returned an amyloid nucleation score of 0.254 ± 0.88.

On to MLSYQR, for which the amyloid nucleation score entry is “inactive”.

As to QNKSWAG, the amyloid nucleation score is -0.509 ± 1.7.

Consider SDYGLGMSDWGDFMDRVGLR, for which the amyloid nucleation score turned out to be 0.527 ± 1.2.

FDDFHESARTGFNGKERSQM had an amyloid nucleation score of 1.01 ± 0.19.

Regarding ANSSFLYTSEHFRHVMAWFG, the amyloid nucleation score is -0.075 ± 0.68.

In turn, TVSKNMYR gave an amyloid nucleation score of -0.259 ± 0.5.

FNDHWSCRV: the amyloid nucleation score is -0.095 ± 0.48.

The substance WFYTVARPNVSSSLESRTEP had an amyloid nucleation score of 0.137 ± 0.22.

Take GHGWITMVTDCR: the amyloid nucleation score amounted to 1.87 ± 0.4.

For the substance VIVSSWLLTCTYSRYMRY, the amyloid nucleation score is -1.5 ± 2.7.

Substance TCTYVYFLCSSIYARNITFM gave an amyloid nucleation score of 8.838 ± 0.057.

HHIDPHDSFIS returned an amyloid nucleation score of 0.711 ± 0.93.

ALSFHYKNLVNT had an amyloid nucleation score of 0.027 ± 0.49.

As for NYSVFVTSI, the amyloid nucleation score stood at 0.365 ± 0.5.

With KLVLRGVFIIDFWSNARRAS, the amyloid nucleation score was found to be 0 ± 0.29.

For the substance IVENARWKVAAEPRNRRSSV, the amyloid nucleation score is 0.273 ± 0.58.

Turning to CMHFVYNIKVRIIPDEYDHS, the amyloid nucleation score amounted to 4.6 ± 0.091.

Take GKVFVCSIVYSIRMSITSRI: the amyloid nucleation score entry is “inactive”.

Consider FICGDLNCQQTSSFCFLDYS, for which the amyloid nucleation score turned out to be 7.296 ± 0.051.

Consider FYSALLGQTRYSRSSRSSTE, for which the amyloid nucleation score entry was “inactive”.

Consider TLGAVHTVHVRFGESSNVFL, for which the amyloid nucleation score came out at 0.055 ± 0.74.

As for NVMNVIGGENWVSGFDCMGR, the amyloid nucleation score result was “inactive”.

The substance RRRLPGSSPISLGYFSSSLA displayed an amyloid nucleation score of -0.509 ± 1.7.

In the case of SDFYLGSRVTCGLNLSMAMG, the amyloid nucleation score is 0.686 ± 0.62.

In turn, SRAINVSVMWVRFS registered an amyloid nucleation score of 2.81 ± 0.13.

As to QFCMKSTPMSHFR, the amyloid nucleation score is -0.772 ± 0.61.
